Results as given in patent US20240245805A1 (Orna Therapeutics, Inc., priority 2020, published 2024).

B1: Rabovirus A NYC-B10 (nucleic acid)
DNA: CCGACCCCACTGGTCGAAGGCCACTTGGCAATAAGACTGGTGGAACAAGGTCGCCTGTAGTTGATTGGAACCTTCTTTCTAATGACTTATGTCAGCGGTGCTACTCACACCGTAACTCTCCTACCCTATCCCCACGCTTGTGGAACTAGGAGGGGATGAGTGATTCAAGTAAGTACTGTCAGAATGGTGAAAATAATCTGATTCTGAAACGCTATGGATCCATCGAAAGATGGGGCTACACGCCTGCGGAACAACACATGGTAACATGTGCCCCAGGGGCCGAAAGCCACGGTGATAGGATCACCCGTGTAGTTTGAGATCATATCAATGTTCATAGTCTAGTAAGATGATTTGAAATCTAACTGGTCTGATGGCTAACTGCTTGTCTTATTGCGGCCTAAGGATGTCCTGCAGGTACCTTTAGAGAACCTTAAGAGACTATTGATCTGAGCAGGAGCCAAGGTGGTCTTTCCCAGCCTTGGTTAAAAAGCGTCTAAGCCGCGGCAGGGGGCGGGAGGCCCCCTTTCCTCCCAAACTATAATATAGATTGT
modifications: lipid formulation; Rabovirus A
B2: Parabovirus C (nucleic acid)
DNA: GATGTATCCCCATCCCCCAGTGTGTATGCCATACTGCATAGCTCGCCTATGCCCTATGGATTCACAACCCTTTCATATACCCTCCCTACCCAACCCCGTAACCACATGCTTTACTCCGCTTGGGGTTTTGCGGCCCCATGTTGTGACGAAATGGCTACGCAATCAATGCGGCTAATGGGGCCTGCCGCTTTTAAGTGGCCCCAGTTAGAAGTTTATGCACACCCGCCCATTAGGAGGCCACCAGCCAGGTGGTCAGAGGGCAAGCACTTCTGTTTCCCCGGTGAAGTTTGATAAGCTGTGCCCACGGCTGAAGCAGACAGATCCGTTACCCGCCTCACTACTACGAGACGGCTAGTAGTGTGTAATATCCGAATTTCATTGATCCGGGTGTTCCCCCCACCCAGAAACGTGTGATGAGGAGCGGCACCCCTCCTATGGCAACATAGGGCCTCTCCTGCGCTGGCACACGGGCTCTATGAGCATGAAATCAGGAGAAAGTCACACGAAGACCTTATTGTGCTAGTGTTGATTCCTCCGCCCCCCTGAATGCGGCTAATCCCAACTCCGGAGCGCCCGCTGGCAAACCCGCCAGAAGAGCGTCGTAATGCGTAAGTCTGGAGCGGAACCGACTACTTTGGGTGTGGCGTGTTTCCTTTATTTCCTTTGTATTTGTAT
modifications: lipid formulation; Parabovirus C
B3: Felipivirus 127F (nucleic acid, listed as Felipivirus sp.)
chain: GATGTCGGATGACGGCTGGCCACCGGGGAAAAACGGCAAATGTGCACCACCTCTGCAACCCACGCCGACCACGTTTAACCATGGCGTTAGTAGGAGTGGACCACTGCAGTGGGCTCTGGTGTGCGACAGTCAGTGGTAGAGTAGACAGTCCTGACTGGGCAATGGGACCGCGTTGCGTATCCCTAGGTGGCATCGAGATTCCTCTGCTACCCACCAGCGTGGACTCCTATGGGGGGGGCCCCATAGGCTAGGTCTATACTGCCTGATAGGGTCGCGGCTGGTCGACCACTGACTGTATAACCAGTTGTAACTCACT
B4: HRVC3 QPM (nucleic acid, listed as Rhinovirus sp.)
chain: TTAAAGCTGGATCATGGTTGTTCCCACCATGATTACCCACGCGGTGCAGTGGTCTTGTATTACGGTACATTTCCATACCAGTTTTATACACCCCACCCCGAAACTCATAGAAGTTTGTACACAATGACCAATAGGTGGTGGCCATCCAGGTCGCTAATGGTCAAGCACTTCTGTTTCCCCGGCACCCTTGTATACGCTTCACCCGAGGCGAAAAATGAGGTTGTCGTTATCCGCAAAGTGCCTACGAAAAGCCTAGTAACACTTTGAAAACCCATGGTTGGTCGCTCAGCTGTTTACCCAACAGTAGACCTGGCAGATGAGGCTAGACATTCCCCACCAGCGATGGTGGTCTAGCCTGCGTGGCTGCCTGCACACCCTGCCGGGTGTGAAGCCAGAAAGTGGACAAGGTGTGAAGAGCCTATTGTGCTCACTTTGAGTCCTCCGGCCCCTGAATGTGGCTAACCCTAACCCCGTAGCTGTTGCATGTAACCCAACATGTATGCAGTCGTAATGGGCAACTATGGGATGGGACCAACTACTTTGGGTGTCCGTGTTTCCTGTTTTACTTTTTCATTGCTTATGGTGACAATTGTATCTGATACACTTGTTACC
modifications: lipid formulation
B5: HRVB27 (nucleic acid, listed as Rhinovirus sp.)
chain: TTAAAACAGCGGATGGGTATCCCACCATCCGACCCACAGGGTGTAGTGCTCTGGTATTTTGTACCTTTGCACGCCTGTTTCCCCATTGTACCCCTCCTTAAATTTCCTCCCCAAGTAACGTTAGAAGTTTAAGGAAACAAATGTACAATAGGAAGCATCACATCCAGTGGTGTTATGTACAAGCACTTCTGTTTCCCCGGAGCGAGGTATAAGTGGTACCCACCGCCGAAAGCCTTTAACCGTTATCCGCCAATCAACTACGTAATGGCTAGTATTACCATGTTTGTGACTTGGTGTTCGATCAGGTGGTTCCCCCCACTAGTTTGGTCGATGAGGCTAGGAACTCCCCACGGGTGACCGTGTCCTAGCCTGCGTGGCGGCCAACCCAGCTTTTGCTGGGACGCCTTTTTACAGACATGGTGTGAAGACCTGCATGTGCTTGATTGTGAGTCCTCCGGCCCCTGAATGCGGCTAACCTTAACCCCGGAGCCTTGCAACATAATCCAATGTTGTTGAGGTCGTAATGAGTAATTCTGGGATGGGACCGACTACTTTGGGTGTCCGTGTTTCCTTTTATTCTTTATATTGTCTTATGGTCACAGCATATATAGCATATATACTGTGATC
modifications: lipid formulation
B6: HRVA73 (nucleic acid, listed as Rhinovirus sp.)
chain: TTAAAACTGGGTTTGGGTTGTTCCCACCCAAACCACCCACGCGGTGTTGTACACTGTTATTCCGGTAACCTTGTACGCCAGTTTTATATCCCTTCCCCCCCTTGTAACTTAGAAGACATGCGAATCGACCAATAGCAGGCAATCAACCAGATTGTCACCGGTCAAGCACTTCTGTTTCCCCGGCTCTCGTTGATATGCTCCAACAGGGCAAAAACAATTGGAGTCGTTACCCGCAAGATGCCTACGCAAAACCTAGTAGCATCTTCGAAGATTTTTGGTTGGTCGCTCAGTTGCTACCCCAGCAATAGACCTGGCAGATGAGGCTAGAAATACCCCACTGGTGACAGTGTTCTAGCCTGCGTGGCTGCCTGCACACCCACACGGGTGTGAAGCCAAAGATTGGACAAGGTGTGAAGAGTCACGTGTGCTCATCTTGAGTCCTCCGGCCCCTGAATGCGGCTAACCTTAACCCCGTAGCCATTGCTCGCAATCCAGCGAGTATATGGTCGTAATGAGTAATTACGGGATGGGACCGACTACTTTGGGTGTCCGTGTTTCACTTTTTACTTATCAATTTGCTTATGGTGACAATATATATAGATATATATTGACACC
modifications: lipid formulation
B7: EV K (nucleic acid)
chain: TCAGCCTGACGCAAGTGCCTCCATTGGAGTCTCTCCAAGCCCTCCGGGGCTTGGAGGGCGCCGACCCCCTGCCTAGGGGGAGCCCACGACACGGCTGGAGTCCATTGGCACACCGCAGCCACGATTCAAGCCAGAATTGAAAGCGGGAAGCACTTCTGTCTCCCCGGTGTGGATCATACGCTGTACCCACGGCGAAAAGTGAAGCATCGTTACCCGACTCGGTACTTCGAGAAGCCCAGTACAGTTGTGGATCTCTGCAGGGTATACGCTCAGCGTGACCCCTACGTAGTTCCTTGAGATGGCTGAGAGAACACCCCACGGGCGACCGTGTCTCTCGGCGCGTGGCTCAAGGCCGGGCCTTCAGTGGCTCGGTGCCTTGCAGAGTGAAGCCTCCGAACAGCCTATTGAGCTACCGTTTAGCCTCCGCCCTCTTGAATGCGGCTAATCCTAACCATGGAGCGCCCGCCCACAGTCCAGTGGGTAGAGCGTCGTAACGCGCAAGTCCGTGGCGGAACCGACTACTTTAGAGTGGCGTGTTTCCAATTTATCCTTTATAAAGTTGCTTATGGTGACACCACAAGAGATCCACGATTTCTTGTTTCTTATCACTGAGACACAAGTCATATTCATCAATCTTTATTGCGGAATTAACTTGGTGCGTCCAAACACATCAGC
modifications: lipid formulation; Enterovirus K
B8: EV J 1631 (nucleic acid, listed as Enterovirus sp.)
chain: CACCCTGAGGGCCCACGTGGCGTAGTACTCTGGTATCAAGGTACCTTTGTACGCCTATTTTATTTCCCTTCCCCCACAGTAACTTAGAAGCTTATCTCATAGTTCAACAGTAGGGTCACTAACCAAGTGGCTCAGCGAACAAGCACTTCTGTTTCCCCGGTCCTAGTACCTGTGAAGCTGTACCCACGGCGGAAGGGGAAAAAGATCGTTATCCGGCCCCCTACTTCGGAAAGCCTAGTAACACCATTGAAGCAATCGAGTGTTGCGCTCAGCACAGTAACCCCTGTGTAGCTTTGGTTGATGAGTCTGGGCACTCCCCACTGGCGACAGCGGCCCAGGCTGCGTTGGCGGCCAACCGACTCGGGCAACCGGGTCGGACGCTCGTTTGTGGACATGGTGTGAAGAGCCTACTGAGCTAGAGGGTAGTCCTCCGGCCCCTGAATGCGGATAATCCTAACCCCGGAGCACCCACACTCAATCCAGAGTGCAGGATGTCGTAACGCGTAAGTCTGGGACGGAACCGACTACTTTGGGTGTCCGTGTTTCCTGTTTTACTTACTTTGGCTGCTTATGGTGACAATCTAGTGTTGTTACCATATAGCTATTGGATTGGCCATCCGGTGTTTTGAATTGTGTGTTTATACTAATTCTTTTACATATCACAGACAACCAAAT
modifications: lipid formulation
B9: EV I (nucleic acid)
chain: TTAGTACTTTCTCACGGGGATAGTGGTATCCCTCCCTAGTAATTTAGAAGACTTGAAAAACCGACCAATAGGCACCTCGCATCCAGCGGGGTAAAGGTCAAGCACTTCTGTTTCCCCGGGTCGAGTAGCGATAGACTGTGCCCACGGTCGAAGGTGAAACAACCCGTTATCCGACTTTGTACTTCGGGAAGCCTAGTACCACCAAAGATTATGCTTGGGGTTTCGCTCAGCACGACCCTGGTGTAGATCAGGCCGATGGATCACCGCATTCCTCACAGGCGACTGTGGCGGTGGTCGCGTGGCAGCCTGCCGATGGGGCAACCCATCGGACGCCAAGCATATGACAGGGTGTGAAGAGCCTACTGAGCTACAAAGTATTCCTCCGGCCCCTGAATGCGGCTAATCCCAACCACGGAGCATTTGCTACCAAACCAGGTAGTGGAATGTCGTAACGGGTAACTCTGTGGCGGAACCGACTACTTTGGGTGTCCGTGTTTCCTTTTAATTTATCATTCTGTATATGGTGACAACTATAGTGCTATCTCGATTTGCATTACTATTGTTGAGATTAAAACTTTATTACATTGTTGCATTTTACCCTTTGAGTGAGTTTTCACCTGAACAGATTAATTTACTCATCCTGTTTATATATTACAAGCAGAAATACTTGCAAAG
modifications: lipid formulation; Enterovirus I

system: HEK293 cells; assay type: cell-based, human; details: circular RNA encoding Gluc with the listed IRES (UTR truncated to 675 nt) transfected into HEK293 cells; supernatant after 24 hours

Molecule	Expression (luminescence from secreted Gluc protein)
B1	1.24E+06
B2	1.83E+07
B3	8.92E+06
B4	1.64E+07
B5	2.04E+08
B6	1.08E+08
B7	7.52E+07
B8	9.88E+07
B9	1.31E+08
